Test results published in patent publication US20110118131A1 (published 2011).

What follows are binders tested against IL-1β (UniProt P01584 117-269) (assay: Biacore, Fab periplasmic extract on IL-1β).

Row | Binder | fold difference in affinity vs original | binding result
1 | XPA23 light chain D92I (Fab, V domains shown, Single light chain substitution; Fab in periplasmic extract; also called C5A (XPA23) D92I) VH: EVQLLESGGGLVQPGGSLRLSCAASGFTFSKYFMFWVRQAPGKGLEWVSVISPSGGMTRYADSVKGRFTISRDNSKNTLYLQMNSLRAEDTAVYYCARVGYGGNSDYWGQGTLVTVSS VL: DIQMTQSPSSVSASVGDRLTIICRASQDINRWLAWYQQTPGNAPKLLIHSATSLQSGVPSRFSGSGSGTDFTLTINSLQPEDFATYYCQQAISFPLTFGGGTKVEIK | 0.33 fold | 
2 | XPA23 light chain F94I (Fab, V domains shown, Single light chain substitution; Fab in periplasmic extract; also called C5A (XPA23) F94I) VH: EVQLLESGGGLVQPGGSLRLSCAASGFTFSKYFMFWVRQAPGKGLEWVSVISPSGGMTRYADSVKGRFTISRDNSKNTLYLQMNSLRAEDTAVYYCARVGYGGNSDYWGQGTLVTVSS VL: DIQMTQSPSSVSASVGDRLTIICRASQDINRWLAWYQQTPGNAPKLLIHSATSLQSGVPSRFSGSGSGTDFTLTINSLQPEDFATYYCQQADSIPLTFGGGTKVEIK | 0.88 fold | 
3 | XPA23 light chain D92P (Fab, V domains shown, Single light chain substitution; Fab in periplasmic extract; also called C5A (XPA23) D92P) VH: EVQLLESGGGLVQPGGSLRLSCAASGFTFSKYFMFWVRQAPGKGLEWVSVISPSGGMTRYADSVKGRFTISRDNSKNTLYLQMNSLRAEDTAVYYCARVGYGGNSDYWGQGTLVTVSS VL: DIQMTQSPSSVSASVGDRLTIICRASQDINRWLAWYQQTPGNAPKLLIHSATSLQSGVPSRFSGSGSGTDFTLTINSLQPEDFATYYCQQAPSFPLTFGGGTKVEIK |  | no binding
4 | XPA23 light chain L96G (Fab, V domains shown, Single light chain substitution; Fab in periplasmic extract; also called C5A (XPA23) L96G) VH: EVQLLESGGGLVQPGGSLRLSCAASGFTFSKYFMFWVRQAPGKGLEWVSVISPSGGMTRYADSVKGRFTISRDNSKNTLYLQMNSLRAEDTAVYYCARVGYGGNSDYWGQGTLVTVSS VL: DIQMTQSPSSVSASVGDRLTIICRASQDINRWLAWYQQTPGNAPKLLIHSATSLQSGVPSRFSGSGSGTDFTLTINSLQPEDFATYYCQQADSFPGTFGGGTKVEIK |  | no binding
5 | XPA23 light chain F94A (Fab, V domains shown, Single light chain substitution; Fab in periplasmic extract; also called C5A (XPA23) F94A) VH: EVQLLESGGGLVQPGGSLRLSCAASGFTFSKYFMFWVRQAPGKGLEWVSVISPSGGMTRYADSVKGRFTISRDNSKNTLYLQMNSLRAEDTAVYYCARVGYGGNSDYWGQGTLVTVSS VL: DIQMTQSPSSVSASVGDRLTIICRASQDINRWLAWYQQTPGNAPKLLIHSATSLQSGVPSRFSGSGSGTDFTLTINSLQPEDFATYYCQQADSAPLTFGGGTKVEIK |  | no binding
6 | XPA23 light chain D92L (Fab, V domains shown, Single light chain substitution; Fab in periplasmic extract; also called C5A (XPA23) D92L) VH: EVQLLESGGGLVQPGGSLRLSCAASGFTFSKYFMFWVRQAPGKGLEWVSVISPSGGMTRYADSVKGRFTISRDNSKNTLYLQMNSLRAEDTAVYYCARVGYGGNSDYWGQGTLVTVSS VL: DIQMTQSPSSVSASVGDRLTIICRASQDINRWLAWYQQTPGNAPKLLIHSATSLQSGVPSRFSGSGSGTDFTLTINSLQPEDFATYYCQQALSFPLTFGGGTKVEIK | 0.14 fold | 
7 | XPA23 light chain F94L (Fab, V domains shown, Single light chain substitution; Fab in periplasmic extract; also called C5A (XPA23) F94L) VH: EVQLLESGGGLVQPGGSLRLSCAASGFTFSKYFMFWVRQAPGKGLEWVSVISPSGGMTRYADSVKGRFTISRDNSKNTLYLQMNSLRAEDTAVYYCARVGYGGNSDYWGQGTLVTVSS VL: DIQMTQSPSSVSASVGDRLTIICRASQDINRWLAWYQQTPGNAPKLLIHSATSLQSGVPSRFSGSGSGTDFTLTINSLQPEDFATYYCQQADSLPLTFGGGTKVEIK | 0.55 fold | 
8 | XPA23 light chain D92T (Fab, V domains shown, Single light chain substitution; Fab in periplasmic extract; also called C5A (XPA23) D92T) VH: EVQLLESGGGLVQPGGSLRLSCAASGFTFSKYFMFWVRQAPGKGLEWVSVISPSGGMTRYADSVKGRFTISRDNSKNTLYLQMNSLRAEDTAVYYCARVGYGGNSDYWGQGTLVTVSS VL: DIQMTQSPSSVSASVGDRLTIICRASQDINRWLAWYQQTPGNAPKLLIHSATSLQSGVPSRFSGSGSGTDFTLTINSLQPEDFATYYCQQATSFPLTFGGGTKVEIK | 0.34 fold | 
9 | XPA23 light chain F94P (Fab, V domains shown, Single light chain substitution; Fab in periplasmic extract; also called C5A (XPA23) F94P) VH: EVQLLESGGGLVQPGGSLRLSCAASGFTFSKYFMFWVRQAPGKGLEWVSVISPSGGMTRYADSVKGRFTISRDNSKNTLYLQMNSLRAEDTAVYYCARVGYGGNSDYWGQGTLVTVSS VL: DIQMTQSPSSVSASVGDRLTIICRASQDINRWLAWYQQTPGNAPKLLIHSATSLQSGVPSRFSGSGSGTDFTLTINSLQPEDFATYYCQQADSPPLTFGGGTKVEIK | 0.17 fold | 

Continued, values first:

Row | fold difference in affinity vs original | binding result | Binder
10 |  | no binding | XPA23 light chain F94T (Fab, V domains shown, Single light chain substitution; Fab in periplasmic extract; also called C5A (XPA23) F94T) VH: EVQLLESGGGLVQPGGSLRLSCAASGFTFSKYFMFWVRQAPGKGLEWVSVISPSGGMTRYADSVKGRFTISRDNSKNTLYLQMNSLRAEDTAVYYCARVGYGGNSDYWGQGTLVTVSS VL: DIQMTQSPSSVSASVGDRLTIICRASQDINRWLAWYQQTPGNAPKLLIHSATSLQSGVPSRFSGSGSGTDFTLTINSLQPEDFATYYCQQADSTPLTFGGGTKVEIK
11 | 0.26 fold |  | XPA23 light chain L96A (Fab, V domains shown, Single light chain substitution; Fab in periplasmic extract; also called C5A (XPA23) L96A) VH: EVQLLESGGGLVQPGGSLRLSCAASGFTFSKYFMFWVRQAPGKGLEWVSVISPSGGMTRYADSVKGRFTISRDNSKNTLYLQMNSLRAEDTAVYYCARVGYGGNSDYWGQGTLVTVSS VL: DIQMTQSPSSVSASVGDRLTIICRASQDINRWLAWYQQTPGNAPKLLIHSATSLQSGVPSRFSGSGSGTDFTLTINSLQPEDFATYYCQQADSFPATFGGGTKVEIK
12 |  | no binding | XPA23 light chain D92V (Fab, V domains shown, Single light chain substitution; Fab in periplasmic extract; also called C5A (XPA23) D92V) VH: EVQLLESGGGLVQPGGSLRLSCAASGFTFSKYFMFWVRQAPGKGLEWVSVISPSGGMTRYADSVKGRFTISRDNSKNTLYLQMNSLRAEDTAVYYCARVGYGGNSDYWGQGTLVTVSS VL: DIQMTQSPSSVSASVGDRLTIICRASQDINRWLAWYQQTPGNAPKLLIHSATSLQSGVPSRFSGSGSGTDFTLTINSLQPEDFATYYCQQAVSFPLTFGGGTKVEIK
13 | 0.67 fold |  | XPA23 light chain L96I (Fab, V domains shown, Single light chain substitution; Fab in periplasmic extract; also called C5A (XPA23) L96I) VH: EVQLLESGGGLVQPGGSLRLSCAASGFTFSKYFMFWVRQAPGKGLEWVSVISPSGGMTRYADSVKGRFTISRDNSKNTLYLQMNSLRAEDTAVYYCARVGYGGNSDYWGQGTLVTVSS VL: DIQMTQSPSSVSASVGDRLTIICRASQDINRWLAWYQQTPGNAPKLLIHSATSLQSGVPSRFSGSGSGTDFTLTINSLQPEDFATYYCQQADSFPITFGGGTKVEIK
14 |  | no binding | XPA23 light chain F94G (Fab, V domains shown, Single light chain substitution; Fab in periplasmic extract; also called C5A (XPA23) F94G) VH: EVQLLESGGGLVQPGGSLRLSCAASGFTFSKYFMFWVRQAPGKGLEWVSVISPSGGMTRYADSVKGRFTISRDNSKNTLYLQMNSLRAEDTAVYYCARVGYGGNSDYWGQGTLVTVSS VL: DIQMTQSPSSVSASVGDRLTIICRASQDINRWLAWYQQTPGNAPKLLIHSATSLQSGVPSRFSGSGSGTDFTLTINSLQPEDFATYYCQQADSGPLTFGGGTKVEIK
15 | 0.2 fold |  | XPA23 light chain F94V (Fab, V domains shown, Single light chain substitution; Fab in periplasmic extract; also called C5A (XPA23) F94V) VH: EVQLLESGGGLVQPGGSLRLSCAASGFTFSKYFMFWVRQAPGKGLEWVSVISPSGGMTRYADSVKGRFTISRDNSKNTLYLQMNSLRAEDTAVYYCARVGYGGNSDYWGQGTLVTVSS VL: DIQMTQSPSSVSASVGDRLTIICRASQDINRWLAWYQQTPGNAPKLLIHSATSLQSGVPSRFSGSGSGTDFTLTINSLQPEDFATYYCQQADSVPLTFGGGTKVEIK
